Values of other authors, collected in publication PMC7855609.

Tests used:
Asp38 = Asp38 (UniProt position 104, FKVVFDTGSSN); assay: kinetics; conditions: Enzyme turning over the wild-type peptide substrate PTDP (His at P2)
Asp226 = Asp226 (UniProt position 292, CLALVDTGASY); assay: kinetics; conditions: Enzyme turning over the wild-type peptide substrate PTDP (His at P2)

## Renin (recombinant human renal renin) (Homo sapiens)
Asp38
  pKa: 5.3
Asp226
  pKa: 6.3
